In patent publication US20230111237A1 (CARLSBERG A S, published 2023):

T1: recombinant wild type Hordeum vulgare limit dextrinase (wt HvLD) (Hordeum vulgare)
T1 chain: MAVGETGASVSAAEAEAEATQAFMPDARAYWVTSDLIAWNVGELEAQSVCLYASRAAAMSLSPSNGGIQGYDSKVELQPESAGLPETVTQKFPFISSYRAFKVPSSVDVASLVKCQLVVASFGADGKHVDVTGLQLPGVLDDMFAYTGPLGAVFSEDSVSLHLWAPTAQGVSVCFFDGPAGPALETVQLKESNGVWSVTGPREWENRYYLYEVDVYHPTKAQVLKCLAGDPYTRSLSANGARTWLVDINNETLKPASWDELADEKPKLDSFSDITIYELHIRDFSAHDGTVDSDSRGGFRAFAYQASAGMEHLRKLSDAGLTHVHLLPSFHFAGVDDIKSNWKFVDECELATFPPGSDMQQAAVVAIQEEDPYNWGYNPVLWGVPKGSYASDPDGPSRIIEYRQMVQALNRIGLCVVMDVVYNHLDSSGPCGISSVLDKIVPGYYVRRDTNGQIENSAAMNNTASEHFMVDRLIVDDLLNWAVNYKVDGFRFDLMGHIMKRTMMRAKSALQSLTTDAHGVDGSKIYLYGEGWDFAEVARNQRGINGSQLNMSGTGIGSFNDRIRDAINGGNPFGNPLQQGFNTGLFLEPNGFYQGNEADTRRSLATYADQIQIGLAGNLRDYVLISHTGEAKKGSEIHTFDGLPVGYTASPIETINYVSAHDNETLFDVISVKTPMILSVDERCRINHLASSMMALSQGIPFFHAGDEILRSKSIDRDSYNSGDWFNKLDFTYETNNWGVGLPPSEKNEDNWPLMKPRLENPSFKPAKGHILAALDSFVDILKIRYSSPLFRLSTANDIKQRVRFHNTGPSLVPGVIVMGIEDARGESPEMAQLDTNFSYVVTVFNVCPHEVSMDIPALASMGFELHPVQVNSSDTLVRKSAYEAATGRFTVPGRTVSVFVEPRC


Target: T1, recombinant wild type Hordeum vulgare …
Experiment: cell-based or functional assay

Binder | IC50 (µM) of inhibition of HvLD activity (PullG6 assay, 1.5 µM HvLD)
HvLDI mutant E68K, recombinant (other) TLESVKDECQPGVDFPHNPLATCHTYVIKRVCGRGPSRPMLVKKRCCRELAAVPDHCRCEALRILMDGVRTPEGRVVEGRLGDRRDCPREEQRAFAATLVTAAECNLSSVQEPGVRLVLLADG | 7.1 µM
HvLDI mutant P60S, recombinant (other) TLESVKDECQPGVDFPHNPLATCHTYVIKRVCGRGSSRPMLVKERCCRELAAVPDHCRCEALRILMDGVRTPEGRVVEGRLGDRRDCPREEQRAFAATLVTAAECNLSSVQEPGVRLVLLADG | 10.1 µM
HvLDI mutant P60L, recombinant (other) TLESVKDECQPGVDFPHNPLATCHTYVIKRVCGRGLSRPMLVKERCCRELAAVPDHCRCEALRILMDGVRTPEGRVVEGRLGDRRDCPREEQRAFAATLVTAAECNLSSVQEPGVRLVLLADG | 13.2 µM

Next, values leading:

IC50 (µM) of inhibition of HvLD activity (PullG6 assay, 1.5 µM HvLD) | Binder
1.56 µM | wild type Hordeum vulgare limit dextrinase inhibitor (wt HvLDI), recombinant (other) TLESVKDECQPGVDFPHNPLATCHTYVIKRVCGRGPSRPMLVKERCCRELAAVPDHCRCEALRILMDGVRTPEGRVVEGRLGDRRDCPREEQRAFAATLVTAAECNLSSVQEPGVRLVLLADG
15.3 µM | HvLDI mutant V66M, recombinant (other) TLESVKDECQPGVDFPHNPLATCHTYVIKRVCGRGPSRPMLMKERCCRELAAVPDHCRCEALRILMDGVRTPEGRVVEGRLGDRRDCPREEQRAFAATLVTAAECNLSSVQEPGVRLVLLADG
